Patent US20220273733A1
Values belong to the binder of their own block, whether it stands above or below them.

Key:
[1] = target: soymeal proteins (ethanol-precipitated, heat-denatured soy-meal protein mixture)
[2] = target: lactoferrin (glycosylated, of human milk) (human) (UniProt P02788)

Glycan Yield (ug), released glycans measured by phenol sulphuric total carbohydrate assay [1]: 75 µg
B1: EndoBI-1 (endo-β-N-acetylglucosaminidase from B. infantis), enzyme solution used in Example 1 (enzyme)
chain: DAVSPTQETIQSTGRHFMVYYRAWRDVTMKGVNTDLPDDNWISMYDIPYGVDVVNIFSYVPSGQEEQAQPFYDKLKSDYAPYLHSRGIKLVRGIDYTGVAVNGFRTFMKEQNKTESEATEADYDAYAKQVIDKYMISVGLDGLDIDMEAHPNDADVKISDNVIRALSKHIGPKSAKPDTTMFLYDTNGSYLNPFKNVAECFDYVAYQQYGSSSDRTARAAADYQPYIGNEFVPGLTFPEEGDMNNRWYDATEPYEESHFYQVASYVREHNLGGMFVYALDRDGRNYDEDLRRIVPSNLLWTKTAIAESEGMALDTAKTAANHYLDRMSLRQVIDDNAASADKARDMVGKAANLYETNKAVLGGDYGEGFSNTYDPTLEAGLLGIDISVLQQQIDKSSEIIGADTAESDAKTALRMARDAAIDGLTGKIYTADQVSAWSQALKAALDATVPVPTPDSTDQNGNRDKVTNHKVQGQPKQLSATGISTDIIVAVGVTLAIAGVALSLSRKLS

N-glycans in fecal samples (nano-HPLC-Chip-TOF) compared with the lactoferrin N-glycan library (out of 18 N-glycans) [2]: 14
B2: EndoBI-1 of B. infantis EVC001 as acting in the gut of EVC001-fed infants (enzyme)
chain: B1 chain
